Experimental findings from patent US20240287172A1 (SCIRHOM, published 2024) are described below.

Positions count from the first letter of the chain named.

T1: hiR2-FL-R554A-T7 (human, UniProt Q6PJF5 1-856)
T1 sequence: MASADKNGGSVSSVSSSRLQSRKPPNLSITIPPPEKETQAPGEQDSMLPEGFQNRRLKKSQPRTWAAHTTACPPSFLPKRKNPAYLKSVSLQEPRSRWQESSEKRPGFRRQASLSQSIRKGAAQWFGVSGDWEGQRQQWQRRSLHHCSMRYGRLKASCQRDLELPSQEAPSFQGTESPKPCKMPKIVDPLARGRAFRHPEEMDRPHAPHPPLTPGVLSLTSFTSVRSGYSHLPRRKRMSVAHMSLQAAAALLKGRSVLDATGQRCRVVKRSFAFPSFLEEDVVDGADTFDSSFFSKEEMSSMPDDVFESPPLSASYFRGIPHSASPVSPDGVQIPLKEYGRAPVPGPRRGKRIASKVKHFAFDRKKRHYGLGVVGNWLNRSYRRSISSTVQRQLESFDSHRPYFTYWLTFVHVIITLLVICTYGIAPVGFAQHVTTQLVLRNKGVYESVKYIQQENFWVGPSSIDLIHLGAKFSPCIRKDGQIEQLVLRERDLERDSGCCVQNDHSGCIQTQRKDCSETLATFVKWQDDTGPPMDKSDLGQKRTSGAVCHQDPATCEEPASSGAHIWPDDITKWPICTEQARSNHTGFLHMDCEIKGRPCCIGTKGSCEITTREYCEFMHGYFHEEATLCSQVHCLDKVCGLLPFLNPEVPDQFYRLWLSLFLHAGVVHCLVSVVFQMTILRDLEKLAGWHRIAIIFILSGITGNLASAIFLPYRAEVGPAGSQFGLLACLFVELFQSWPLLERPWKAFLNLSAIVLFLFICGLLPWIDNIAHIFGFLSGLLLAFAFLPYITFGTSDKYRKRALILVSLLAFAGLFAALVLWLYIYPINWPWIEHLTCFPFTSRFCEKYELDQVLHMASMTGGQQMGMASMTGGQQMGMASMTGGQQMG

T2: hiR2-FL-G546A-T7 (human, UniProt Q6PJF5 1-856)
T2 sequence: T1 sequence with G546A, A554R

B1: antibody 5 (antibody, V domains shown)
VH: QVTLKESGPGILQPSQTLSLTCSFSGFSLSTFGMGVGWIRQPSGKGLEWLAHIWWDDEKYYNSALKSRLTISKATSKNQAFLKIANVDTADTATYYCARISNYGSNYWYFNVWGTGTTVTVSS
VL: QVVLTQSPALMSASPGEKVTMTCSAGSSVSCMYWYQQKPGSSPRVLIYDTSNLASGVPARFTGSGSGTSYSLTISRMEAEDAASYYCQQWNSYPLTFGAGTKLELK
notes: mouse IgG, kappa light chain; also called clone #5; purified antibody 5
B2: antibody 43 (antibody, V domains shown)
VH: B1 VH with T3A, P42S, H52N, E58D, S63P, A74D, T75A, S101G, N111D
VL: QIVLTQSPAIMSASPGERVTMTCSANSRISYMYWYQQKPGSSPRLLIYDTSNLASGVPVRFSGSGSGTSYSLTISRMEAEDAATYNCQQWSSYPLTFGAGTKLELK
notes: mouse IgG, kappa light chain; also called clone #43; purified antibody 43
B3: antibody 44 (antibody, V domains shown)
VH: B1 VH with G44E, E58D, S63P, A74D, A80I, A85T, D91E, A98S, S101G, N111D
VL: QIVLTQSPAVMSASPGEKVTMTCTASSSVYYMYWYQQTPGSSPRLLIYDTSNLASGVPVRFSGSGSGTSYSLTISRMEAEDAATYYCQQWNTYPLTFGAGTKLELK
notes: mouse IgG, kappa light chain; also called clone #44; purified antibody 44
B4: antibody 22 (antibody, V domains shown)
VH: B1 VH with A80V
VL: B1 VL with C31Y, S84T
notes: mouse IgG, kappa light chain; also called clone #22; purified antibody 22
B5: antibody 48 (antibody, V domains shown)
VH: QVQLQQSGTELVRPGTSVKVSCKASGYAFTNYLIEWVKQRPGQGLEWIGVINPGSGFTKYNEKFKGKATLTADKSSSTVYMHLSSLTSEDSAVYFCARGLYRAMDYWGQGTSVTVSS
VL: DIQMTQSPASQSASLGESVTITCLASQTIATWLAWYQQKPGKSPQLLIYGATTLADGVPSRFSGGGSGTKFSFKISSLQAEDFVSYYCQQLYSTPYTFGGGTKLEIK
notes: mouse IgG, kappa light chain; also called clone #48; purified antibody 48
B6: antibody 3 (antibody, V domains shown)
VH: QVTLKESGPGILQPSQTLSLTCSFSGFSLTTFAMGIGWVRQPSGKGLEWLAHIWWDGEKYNNPVLKSRLTISKDTSKNQVFLRIANVDTPDTATYYCARISSIYYIIDNWGQGTSVTVSS
VL: DIVLTQSPATLSVTPGHSVSLSCRASQSISNNLHWYQKKSHESPRLLIKYVSQSISGIPSRFSGSGSGTDFTLSINSVETEDFGMYFCQQSYNWPLTFGAGTKLELK
notes: mouse IgG, kappa light chain; also called clone #3; purified antibody 3
B7: antibody 34 (antibody, V domains shown)
VH: QVTLKESGPGILQPSQTLSLTCSFSGFSLSTFSLGVGWIRQSSGKGLEWLAHIWWDDEKYYNPALKSRLTISKDTSKNQVFLKIANVDAADTATYYCARAYYSKSYYALDYWGQGTSVTVSS
VL: DIQMTQSPSSLSASLGERVSLTCRASQEISGYLSWLQQKPDGTIKRLIYAASTLDSGVPKRFSGSRSGSDYSLAISSLESEDFADYYCLQYANFPFTFGSGTKLEIK
notes: mouse IgG, kappa light chain; also called clone #34; purified antibody 34

One assay has as its target T1, hiR2-FL-R554A-T7. The assay can be described thus: FACS on MEF-DKO cells expressing the variant, 3 µg/ml antibody. The procedure, abridged:
(§1)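 Primary stain: antibody 3 μg/ml, 1 h on ice; controls buffer alone. Secondary: PE anti-mouse IgG F(ab′)2 1:100, 1 h on ice, light-protected. Washes at 4° C; read by flow cytometry.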
In the case of B1, the “loss of binding vs wild type” value is not below 60%. Consider B2, for which the “loss of binding vs wild type” value was not below 30%. Same read-out and setting: to B3 belongs not below 60%; to B4, not below 30%; to B5, not below 30%.

Another assay concerns the target T2, hiR2-FL-G546A-T7. The assay is described as above. The procedure, abridged:
as §1
In the case of B6, the “loss of binding vs wild type” value was not below 30%.

Take B1: the “loss of binding vs wild type” value was not below 30%. On to B2, for which the “loss of binding vs wild type” value is not below 30%. The same measure, in the same setting: to B3 belongs not below 30%; to B7, not below 30%.
